Here are results for 15 molecules from patent publication US20190276542A1 (QILU PUGET SOUND BIOTHERAPEUTICS, published 2019).

The target of assay [1] is T1, human PD1 expressed on a cell surface (human, UniProt Q15116 25-288).
T1 construct: whole, on cells; also called hPD1
Description: flow cytometry on OKT3-activated human T cells, CD4+ cells. On the procedure: (§1) The following experiment tested whether the selected anti-hPD1 antibodies can bind to native PD1 expressed on the surface of activated T cells. Human PBMCs were pre-activated with OKT3 (an anti-CD3 antibody) at a concentration of 1 μg/ml. After three days, the PBMCs, which were mostly activated T cells at this time, were distributed into a 96 well microtiter plate using 0.1×10⁶ cells/well. […] The antibody bound to CD4⁺ T cells and CD4⁻ T cells (which were predominately CD8⁺ T cells) was detected using anti-hlgG-FITC and an anti-CD4 antibody labeled with allophycocyanin (anti-CD4-APC).
(§2) The samples were analyzed by flow cytometry (FACScalibur, BD), and binding was reported as an MFI. EC₅₀'s for binding were calculated using GraphPad Prism software.
A general note: In flow cytometry, cells or beads pass a laser one at a time.

Assay [2] addresses T1, human PD1 expressed on a cell surface. Description: flow cytometry on OKT3-activated human T cells, CD4- cells. On the procedure: as §1, §2
Assay [3] concerns the target T2, human CTLA4 expressed on Jurkat T cells (human, UniProt P16410 36-223). Description: cell-based or functional assay.
For assay [4], the target named is T2, human CTLA4 expressed on Jurkat T cells. Description: flow cytometry on Jurkat T cells expressing hCTLA4. The text has this:
After washing, the surface-bound anti-hCTLA4 antibodies were detected with a polyclonal anti-hlgG (Fc-specific) antibody labeled with fluorescein isothiocyanate (FITC)(anti-hlgG-FITC). Binding of anti-hCTLA4 antibodies were detected by flow cytometric analysis. The results were reported a geometric mean fluorescence intensity (MFI) using FlowJo software (FLOWJO, L.L.C., Ashland, Oreg., USA).

The target of assay [5] is T3, CTLA4-ECD_Fc, soluble hCTLA4 comprising the extracellular domain of hCTLA4 fused to an Fc fragment (human, UniProt P16410 36-161).
T3 construct: extracellular domain; not shown: Fc fragment
Description: flow cytometry; inhibition of CTLA4-ECD_Fc binding to Raji cells (hB7-1/hB7-2). The protocol: In a first assay, inhibition of hCTLA4 binding to hB7-1 and hB7-2 expressed on the surface of Raji cells was assessed. Raji cells, which are human cells, express high levels of hB7-1 and hB7-2. […] After 30 minutes, 1×10⁵ Raji cells were added to each well and incubated for another 30 minutes. […] IC₅₀'s were calculated using GraphPad Prism software (GraphPad, Inc., La Jolla, Calif., USA).

T3 sequence (P16410 36-161): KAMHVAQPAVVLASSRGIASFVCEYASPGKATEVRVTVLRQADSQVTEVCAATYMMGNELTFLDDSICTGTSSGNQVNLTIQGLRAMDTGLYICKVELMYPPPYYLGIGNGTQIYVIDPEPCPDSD
T2 sequence (P16410 36-223): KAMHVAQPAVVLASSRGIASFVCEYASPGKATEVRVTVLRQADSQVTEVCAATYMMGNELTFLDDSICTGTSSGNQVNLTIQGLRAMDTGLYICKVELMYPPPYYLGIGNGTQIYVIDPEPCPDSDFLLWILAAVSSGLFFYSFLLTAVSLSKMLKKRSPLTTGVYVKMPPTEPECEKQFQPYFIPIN
T1 sequence (Q15116 25-288): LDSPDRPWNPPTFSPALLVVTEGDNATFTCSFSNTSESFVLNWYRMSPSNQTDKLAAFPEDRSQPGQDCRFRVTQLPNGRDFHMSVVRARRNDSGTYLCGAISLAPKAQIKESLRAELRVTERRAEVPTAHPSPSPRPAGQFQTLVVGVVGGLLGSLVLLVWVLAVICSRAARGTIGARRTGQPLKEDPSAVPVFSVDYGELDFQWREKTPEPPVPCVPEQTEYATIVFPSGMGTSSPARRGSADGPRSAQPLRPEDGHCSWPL

B1: anti-hPD1 antibody #13 (antibody, human IgG4, V domains shown)
VH: QVQLVQSGAEVKKPGASVKVSCKASGYTFTSYWIHWVRQAPGQGLEWMGEIDPYDSYTNYNQKFKGRVTMTVDKSTNTVYMELSSLTSEDTAVYYCARPGLTYGGMDFWGQGTLVTVSS
VL: DIQMTQSPSSLSASVGDRVTITCKSSQSLLNSGNQKNYLAWYQQKPGKPPKLLIYGASTRDSGVPAKFSGSGSGTDFTLTISSLQPEDVATYYCQNDHYYPYTFGGGTKVEIK
notes: also called Anti-hPD1 #13
As a reminder, the EC50 is the concentration that produces a half-maximal response. A low value points to a more potent agent. With B1, the EC50 in assay [1] came out at 0.998 nM; in assay [2] it was 1.46 nM.

B2: anti-hPD1 antibody #11 (antibody, human IgG4, V domains shown)
VH: QVQLVQSGAEVKKPGASVKVSCKASGYTFTSYWIHWVRQAPGQGLEWMGEIDPSDSYTNYNQKFKGRVTMTGDTSTNTVYMELSSLTSEDTAVYYCARPGYTYGGMDFWGQGTLVTVSS
VL: DIVMTQSPDSLAVSLGERATISCRSSQSLFISGNQKNYLAWYQQKPGQPPKLLIYGASTRDSGVPDRFSGSGSGTDFTLTISSLQAEDVAVYYCQNNHYYPYTFGGGTKVEIK
notes: also called Anti-hPD1 #11
As for B2, the EC50 in assay [1] came to 33.7 nM; in assay [2], 24.7 nM.

B3: anti-hPD1 antibody #12 (antibody, human IgG4, V domains shown)
VH: QVQLVQSGAEVKKPGASVKVSCKASGYTFTNYWMHWVRQAPGQGLEWMGEIDPFDSYTNYNQKFKGRVTMTIDTSTNTVYMELSSLRSEDTAVYYCARPGFTYGGMDFWGQGTLVTVSS
VL: DIVMTQSPDSLAVSLGERATISCRSSQSLLISGNQKNYLAWYQQKPGQPPKLLIYGASTRDSGVPDRFSGSGSGTDFTLTISSLQAEDVAVYYCQNNHYYPYTFGGGTKVEIK
notes: also called Anti-hPD1 #12
As for B3, the EC50 in assay [1] came to 0.849 nM; in assay [2], 1.16 nM.

B4: anti-hPD1 antibody #15 (antibody, human IgG4, V domains shown)
VH: QVQLVQSGAEVKKPGASVKVSCKASGYTFTNYWMHWVRQAPGQGLEWMGEIDPYDSYTNYNQKFKGRVTMTRDTSTNTVYMELSSLRSEDTAVYYCARPGLTYGGMDFWGQGTLVTVSS
VL: DIQMTQSPSSLSASVGDRVTITCRSSQSLFNSGNQKNYLAWYQQKPGKPPKLLIYGASTRESGVPYRFSGSGSGTDFTLTISSLQPEDVATYYCQNDHYYPYTFGGGTKVEIK
notes: also called Anti-hPD1 #15
For B4, the EC50 in assay [1] amounted to 0.72 nM; in assay [2], 0.627 nM.

B5: anti-hPD1 antibody #8 (antibody, human IgG4, V domains shown)
VH: QVQLVQSGAEVKKPGASVKVSCKASGYTFTNYWIHWVRQAPGQGLEWMGEIDPYDSYTNYNQKFKGRVTMTIDTSTSTVYMELSSLRSEDTAVYYCARPGNTYGGMDFWGQGTLVTVSS
VL: DIVMTQSPDSLAVSLGERATINCKSSQSLFISGNQKNYLAWYQQKPGQPPKLLIYGASTRDSGVPDRFSGSGSGTDFTLTISSLQAEDVAVYYCQNNHYYPYTFGGGTKVEIK
notes: also called Anti-hPD1 #8
On to B5, for which the EC50 in assay [1] stood at 0.647 nM; in assay [2] it was 0.904 nM.

B6: anti-hCTLA4 antibody 2F1 (antibody, human IgG1, V domains shown)
VH: QVQLVESGGGVVEPGRSLRLSCAASGFTFSSYGMHWVRQAPGKGLEWVAVIWYHRSEKDYADSAKGRFTISRDNSKNTLYLQMNSLRAEDTAVYYCARAGLLGYFDYWGQGTLVTVSS
VL: EIVLTQSPGTLSLSPGERATLSCRASQSINSYLAWYQQKPGQAPRPLIYGVSSRATGIPDRFSGSGSGTDFTLTISRLEPEDFAVYYCQQYGMYPFTFGPGTKVDIK
In general, IC50 refers to the concentration at which inhibition is half-maximal. Lower therefore signals greater potency in that assay. Consider B6, for which, in assay [3], the “IC50, luciferase (RLU), CTLA4 Dual-Cell Reporter Assay (Jurkat cells with hCTLA4 plus Raji cells)” value (shortened to “IC50, luciferase (RLU)”) is 20.5 nM. Besides, the EC50 in assay [4] was determined as 0.276 nM. In assay [5], the IC50 turned out to be 9.1 nM.

B7: anti-hCTLA4 antibody 8B4 (antibody, human IgG1, V domains shown)
VH: QVQLVESGGGVVEPGRSLRLSCAASGFTFSSYGMHWVRQAPGKGLEWVAVIWYQPSEKDYADSAKGRFTISRDNSKNTLYLQMNSLRAEDTAVYYCARAGFLGYFDYWGQGTLVTVSS
VL: EIVLTQSPGTLSLSPGERATLSCRASQSVNSYLAWYQQKPGQAPRPLIYGVSSRATGIPDRFSGSGSGTDFTLTISRLEPEDFAVYYCQQYGMYPFTFGPGTKVDIK
As for B7, in assay [3], the “IC50, luciferase (RLU)” value turned out to be 19 nM. This molecule also registered an EC50 in assay [4] of 0.384 nM. The molecule further registered an IC50 in assay [5] of 3.8 nM.

B8: anti-hCTLA4 antibody 12G4 (antibody, human IgG1, V domains shown)
VH: QVQLVESGGGVVEPGRSLRLSCAASGFTFSSYGMHWVRQAPGKGLEWVAVIWYNTSKKDYADSAKGRFTISRDNSKNTLYLQMNSLRAEDTAVYYCARGGLLGYFDYWGQGTLVTVSS
VL: EIVLTQSPGTLSLSPGERATLSCRASQSITSYLAWYQQKPGQAPRPLIYGVSSRATGIPDRFSGSGSGTDFTLTISRLEPEDFAVYYCQQYGRYPFTFGPGTKVDIK
As to B8, the “IC50, luciferase (RLU)” value in assay [3] is 13.9 nM. In addition, the midpoint of the response in assay [4], the EC50, lay at 0.15 nM. This molecule showed an IC50 in assay [5] of 3.5 nM.

B9: anti-hCTLA4 antibody 5B2 (antibody, human IgG1, V domains shown)
VH: QVQLVESGGGVVEPGRSLRLSCTASGFTFSSYGMHWVRQAPGKGLEWVAVIWYKSSEKDYADSAKGRFTISRDNSKNTLYLQMNSLRAEDTAVYYCARAGLLGYFDYWGQGTLVTVSS
VL: EIVLTQSPGTLSLSPGERATLSCRASQSLSSYLAWYQQKPGQAPRLLIYGVSSRATGIPDRFSGSGSGTDFTLTISRLEPEDFAVYYCQQYGMYPFTFGPGTKVDIK
As for B9, the “IC50, luciferase (RLU)” value in assay [3] is above 340 nM. Also, the EC50 in assay [4] amounted to 2.93 nM. In assay [5], this molecule returned an IC50 of 11.5 nM.

B10: anti-hCTLA4 antibody 3G1 (antibody, human IgG1, V domains shown)
VH: QVQLVESGGGVVEPGRSLRLSCTASGFTFSSYGMHWVRQAPGKGLEWVAVIWYKSSEKYYADSAKGRFTISRDNSKNTLYLQMNSLRAEDTAVYYCARGGLLGYFDYWGQGTLVTVSS
VL: EIVLTQSPGTLSLSPGERATLSCRASQSINSYLAWYQQKPGQAPRPLIYGVSSRATGIPDRFSGSGSGTDFTLTISRLEPEDFAVYYCQQYGMYPFTFGPGTKVDIK
In the case of B10, in assay [3], the “IC50, luciferase (RLU)” value is above 340 nM. The molecule further displayed an EC50 in assay [4] of 3.1 nM. The IC50 in assay [5] came to 3.5 nM.

B11: anti-hCTLA4 antibody 7A4 (antibody, human IgG1, V domains shown)
VH: QVQLVESGGGVVEPGRSLRLSCTASGFTFSSYGMHWVRQAPGKGLEWVAVIWYQTSEKDYADSAKGRFTISRDNSKNTLYLQMNSLRAEDTAVYYCARAGLLGYFDYWGQGTLVTVSS
VL: EIVLTQSPGTLSLSPGERATLSCRASQSVSSYLAWYQQKPGQAPRPLIYGVSSRATGIPDRFSGSGSGTDFTLTISRLEPEDFAVYYCQQYGMYPFTFGPGTKVDIK
As to B11, in assay [3], the “IC50, luciferase (RLU)” value is 10.9 nM. Besides, the EC50 in assay [4] came out at 0.217 nM. The same molecule gave an IC50 in assay [5] of 19.8 nM.

B12: anti-hCTLA4 antibody 4H1 (antibody, human IgG1, V domains shown)
VH: QVQLVESGGGVVEPGRSLRLSCTASGFTFSSYGMHWVRQAPGKGLEWVAVIWYNPSKKDYADSAKGRFTISRDNSKNTLYLQMNSLRAEDTAVYYCARGGLFGYFDYWGQGTLVTVSS
VL: EIVLTQSPGTLSLSPGERATLSCRASQSVSSYLAWYQQKPGQAPRPLIYGVSSRATGIPDRFSGSGSGTDFTLTISRLEPEDFAVYYCQQYGMYPFTFGPGTKVDIK
Turning to B12, in assay [3], the “IC50, luciferase (RLU)” value stood at 73.8 nM. Also, the half-maximal effective concentration (EC50) in assay [4] was determined as 0.189 nM. The IC50 in assay [5] was determined as 8.2 nM.

B13: anti-hCTLA4 antibody 6E3 (antibody, human IgG1, V domains shown)
VH: QVQLVESGGGVVEPGRSLRLSCAASGFTFSSYGMHWVRQAPGKGLEWVAVIWYKTSEKDYADSAKGRFTISRDNSKNTLYLQMNSLRAEDTAVYYCARAGLLGYFDYWGQGTLVTVSS
VL: EIVLTQSPGTLSLSPGERATLSCRASQSVTSYLAWYQQKPGQAPRPLIYGVSSRATGIPDRFSGSGSGTDFTLTISRLEPEDFAVYYCQQYGMSPFTFGPGTKVDIK
For B13, the “IC50, luciferase (RLU)” value in assay [3] was 30 nM. The molecule also came in with an EC50 in assay [4] of 0.437 nM. The molecule further gave an IC50 in assay [5] of 14.1 nM.

B14: anti-hCTLA4 antibody 9C4 (antibody, human IgG1, V domains shown)
VH: QVQLVESGGGVVEPGRSLRLSCAASGFTFSSYGMHWVRQAPGKGLEWVAVIWYKSSEKDYADSAKGRFTISRDNSKNTLYLQMNSLRAEDTAVYYCARAGLLGYFDYWGQGTLVTVSS
VL: EIVLTQSPGTLSLSPGERATLSCRASQSLNSYLAWYQQKPGQAPRPLIYGVSSRATGIPDRFSGSGSGTDFTLTISRLEPEDFAVYYCQQYGIYPFTFGPGTKVDIK
For the molecule B14, in assay [3], the “IC50, luciferase (RLU)” value is 25.3 nM. Also, in assay [4], the EC50 came out at 0.473 nM. In addition, the IC50 in assay [5] came out at 15.7 nM.

B15: anti-hCTLA4 antibody 1E1 (antibody, human IgG1, V domains shown)
VH: QVQLVESGGGVVEPGRSLRLSCAASGFTFSSYGMHWVRQAPGKGLEWVAVIWYNPSEKDYADSAKGRFTISRDNSKNTLYLQMNSLRAEDTAVYYCARAGLLGYFDYWGQGTLVTVSS
VL: EIVLTQSPGTLSLSPGERATLSCRASQSISSYLAWYQQKPGQAPRPLIYGVSSRATGIPDRFSGSGSGTDFTLTISRLEPEDFAVYYCQQYGMSPFTFGPGTKVDIK
Regarding B15, in assay [3], the “IC50, luciferase (RLU)” value was found to be 28.2 nM. In addition, in assay [4], the EC50 amounted to 0.697 nM. The IC50 in assay [5] was 6.3 nM.
